Laboratory results reported in PMC5756113 (Peptides, 2017).

Assays:
[1] = in vivo, cited from earlier work
[2] = mouse, in vivo
[3] = mouse, in vivo; remark: listed apart in the source

Substance | Rate of PACAP38 transport across the mouse BBB [1] | Amount of I-PACAP38 to enter the brain ([1]; mouse) | Vi previously reported ([1]; mouse) | Average rate of I-PACAP38 transport into whole brain in the No-Sham Controls [2] | Average rate of transport into the whole brain for all groups [2] | Increase in the Vi, CCI versus Sham [2] | Transport rate in cerebellum compared to the cortices and whole brain [2] | %Inj/g in cerebellum (average) [3] | Amount of I-PACAP38 to enter the brain (value calculated here) [3] | I-PACAP38 %Inj/g in the ipsilateral cortex, CCI compared to Sham [3] | Half-time disappearance of PACAP38 from the blood ([1]; mouse) | Increase in the rate of transport at 72 hours post-CCI compared to the 2 hour time point [2]
I-PACAP38: 38-amino acid form of PACAP (Bachem) radioactively labeled with 125I by the lactoperoxidase method | 2.86 µL/g/min | 0.119 %Inj/g | 18.5 µL/g | 2.35 µL/g/min | 2.98 µL/g/min | 1.4 fold | ~2 fold | 0.37 %Inj/g | 0.15 %Inj/g | nearly a doubling | – | –
Pituitary adenylate cyclase-activating polypeptide 38 [PACAP38, reference compound] | 2.86 ± 0.57 µL/g/min | – | – | – | – | – | – | – | – | – | 0.82 min | 2–3 fold
